These results are taken from patent US20240218057A1.

Common to all, as to assay: cell-based or functional assay
Assay [1] has as its target SARS-COV-2 spike protein N501Y on pseudotyped virus (SARS-CoV-2) (UniProt P0DTC2).
The target of assay [2] is SARS-COV-2 spike protein N440K on pseudotyped virus (SARS-CoV-2) (UniProt P0DTC2).
Assay [3] deals with SARS-COV-2 spike protein E484K (R683G) on pseudotyped virus (SARS-CoV-2) (UniProt P0DTC2).
For assay [4], the target named is SARS-COV-2 spike protein R683G on pseudotyped virus (SARS-CoV-2) (UniProt P0DTC2).
In assay [5] the target is SARS-COV-2 spike protein K417N on pseudotyped virus (SARS-CoV-2) (UniProt P0DTC2).
Assay [6] addresses SARS-COV-2 spike protein A475V on pseudotyped virus (SARS-CoV-2) (UniProt P0DTC2).
Assay [7] concerns the target SARS-COV-2 spike protein R346S on pseudotyped virus (SARS-CoV-2) (UniProt P0DTC2).
In assay [8] the target is SARS-CoV-2 spike protein N501Y (pseudovirus) (SARS-CoV-2) (UniProt P0DTC2).
The target of assay [9] is SARS-CoV-2 spike protein A475V (pseudovirus) (SARS-CoV-2) (UniProt P0DTC2).
Assay [10] deals with SARS-CoV-2 spike protein K417N (pseudovirus) (SARS-CoV-2) (UniProt P0DTC2).
In assay [11] the target is SARS-CoV-2 spike protein N440K (pseudovirus) (SARS-CoV-2) (UniProt P0DTC2).
Assay [12] has as its target SARS-CoV-2 spike protein R346S (pseudovirus) (SARS-CoV-2) (UniProt P0DTC2).
Assay [13] deals with SARS-CoV-2 spike protein R683G (pseudovirus) (SARS-CoV-2) (UniProt P0DTC2).
Assay [14] concerns the target SARS-CoV-2 spike protein E484K (R683G) (pseudovirus) (SARS-CoV-2) (UniProt P0DTC2).
For assay [15], the target named is SARS-CoV-2 spike protein K417N/E484K/N501Y (R683G) (pseudovirus) (SARS-CoV-2) (UniProt P0DTC2).
Assay [16] addresses SARS-CoV-2 spike protein Q493R (pseudovirus) (SARS-CoV-2) (UniProt P0DTC2).

Regarding C135 (antibody), the neutralization IC50 in assay [1] is 0.0129 µg/mL; in assay [2], more than 1 µg/mL; in [3], 0.00199 µg/mL; in assay [4], 0.00271 µg/mL; in assay [5], 0.00348 µg/mL; in assay [6], 0.00461 µg/mL. The substance further yielded a neutralization IC50 in [7] of more than 1 µg/mL. The neutralization IC90 in [1] is 0.141 µg/mL; in assay [2], more than 1 µg/mL; in assay [3], 0.02 µg/mL; in assay [4], 0.0228 µg/mL; in [5], 0.0147 µg/mL; in assay [6] it was 0.0272 µg/mL. Besides, the neutralization IC90 in assay [7] is more than 1 µg/mL.
For C121 (antibody), the neutralization IC50 in assay [1] is 0.00375 µg/mL; in [2] it was 0.0035 µg/mL; in assay [3], more than 1 µg/mL; in assay [4] it was 0.00167 µg/mL; in assay [5] it was 0.0031 µg/mL; in assay [6], 0.00253 µg/mL. This substance also had a neutralization IC50 in [7] of 0.00363 µg/mL. Also, the neutralization IC90 in assay [1] is 0.0189 µg/mL; in [2], 0.0182 µg/mL; in assay [3] it was more than 1 µg/mL; in [4], 0.0108 µg/mL; in assay [5], 0.0163 µg/mL; in assay [6], 0.0183 µg/mL. The substance further had a neutralization IC90 in [7] of 0.0156 µg/mL.
Regarding C144 (antibody), the neutralization IC50 in assay [1] was 0.00305 µg/mL; in assay [2], 0.0024 µg/mL; in assay [3] it was more than 1 µg/mL; in assay [4], 0.00123 µg/mL; in assay [5], 0.00184 µg/mL; in assay [6] it was 0.00319 µg/mL. This substance had a neutralization IC50 in [7] of 0.00341 µg/mL. The neutralization IC90 in assay [1] is 0.0189 µg/mL; in assay [2], 0.0135 µg/mL; in [3], more than 1 µg/mL; in [4] it was 0.00666 µg/mL; in [5], 0.0115 µg/mL; in [6] it was 0.0162 µg/mL. Moreover, in assay [7], the neutralization IC90 came out at 0.0167 µg/mL. Further, the IC50 neutralization in [8] stood at 0.003 µg/mL; in [9] it was 0.0032 µg/mL; in [10] it was 0.0018 µg/mL; in [11] it was 0.0024 µg/mL; in assay [12], 0.0034 µg/mL; in [13] it was 0.0012 µg/mL. Further, the IC50 neutralization in [14], in assay [15] and in assay [16] was more than 1 µg/mL throughout. Besides, the IC90 neutralization in assay [8] amounted to 0.0189 µg/mL; in [9] it was 0.0162 µg/mL; in assay [10], 0.0115 µg/mL; in [11], 0.0135 µg/mL; in assay [12], 0.0167 µg/mL; in [13] it was 0.0067 µg/mL. In addition, the IC90 neutralization in assay [14], in [15] and in assay [16] was more than 1 µg/mL in each case.
